Reference: article PMC2828547, “UIF, a New mRNA Export Adaptor that Works Together with REF/ALY, Requires FACT for Recruitment to mRNA” (Current Biology, 2009)

Target: T1, GST-UAP56 (UniProt Q13838 1-428)
T1 construct: UAP56
Assay: pull-down; GST fusion proteins with purified UIF in the presence of RNase; Coomassie staining
Settings: both partners purified

T1 sequence (Q13838 whole entry): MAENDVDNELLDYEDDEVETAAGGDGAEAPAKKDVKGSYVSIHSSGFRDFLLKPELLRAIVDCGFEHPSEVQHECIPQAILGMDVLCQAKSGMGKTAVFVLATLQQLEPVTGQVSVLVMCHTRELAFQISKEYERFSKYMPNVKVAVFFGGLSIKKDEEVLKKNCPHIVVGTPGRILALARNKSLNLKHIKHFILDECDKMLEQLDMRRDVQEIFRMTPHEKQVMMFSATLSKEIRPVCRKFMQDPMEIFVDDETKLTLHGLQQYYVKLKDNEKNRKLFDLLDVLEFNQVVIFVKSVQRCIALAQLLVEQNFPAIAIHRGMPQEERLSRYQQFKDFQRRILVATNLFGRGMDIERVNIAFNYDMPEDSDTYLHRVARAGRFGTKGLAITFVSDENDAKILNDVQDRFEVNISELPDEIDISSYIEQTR

B1: purified UIF (recombinant) (natural protein, human, UniProt Q96QD9 1-318, looked up)
chain: MNRFGTRLVGATATSSPPPKARSNENLDKIDMSLDDIIKLNRKEGKKQNFPRLNRRLLQQSGAQQFRMRVRWGIQQNSGFGKTSLNRRGRVMPGKRRPNGVITGLAARKTTGIRKGISPMNRPPLSDKNIEQYFPVLKRKANLLRQNEGQRKPVAVLKRPSQLSRKNNIPANFTRSGNKLNHQKDTRQATFLFRRGLKVQAQLNTEQLLDDVVAKRTRQWRTSTTNGGILTVSIDNPGAVQCPVTQKPRLTRTAVPSFLTKREQSDVKKVPKGVPLQFDINSVGKQTGMTLNERFGILKEQRATLTYNKGGSRFVTVG
notes: it may be the GB1-6His-UIF of m18; also called recombinant UIF
Does B1 bind?
Result: binds
